Source: the Human Domainome abundance scans (Beltran et al. 2025)

B1: SWI/SNF complex subunit SMARCC2, residues 599 to 641; numbered along this chain, Q8TAQ2 (parent)
chain: REWTEQETLLLLEALEMYKDDWNKVSEHVGSRTQDECILHFLR

Variants of: B1
Experiment: abundance fitness (aPCA) (normalised: wild type 0, dead -1); higher = more abundant; growth selection in yeast, the domain comes from the species named
Settings: Homo sapiens

Abundance fitness, by site and new letter:
H28: K -0.242, I -0.265, S -0.747, W -0.138, V -0.322, M -0.341, E -0.748, C -0.376, L -0.433, Y -0.225, Q -0.26, F -0.401, G -0.341, D -1.16, P -0.86
E27: C -0.379, L -0.473, D -0.209, P -0.677, W -0.495, N -0.042, R -0.022, G -0.038, T -0.146, Q -0.244, V -0.515, H -0.407, S -0.21
E36: D -0.003, L -1.02, Q 0.08, W -0.855, G -0.844, F -0.523, M -0.897, P -0.783, H -0.196, R -0.873, V -1.15, A -0.446, K -0.507
L42: R 0.589, K 0.895, V 0.343, W 0.049, S 0.376, T 0.519, A 0.334, Q 0.351, D 0.726, F 0.139, M 0.167, H 0.615, G 0.447
L39: W -0.29, I -0.21, P -0.24, R 0.122, V -0.009, E 0.335, N 0.024, D 0.642, S 0.071, Y -0.108, Q 0.08, F -0.024, A 0.154, H 0.16, T 0.235, G 0.149
Q34: T 0.185, A -0.235, I -0.074, Y 0.03, M -0.282, H 0.058, P 0.02, D -0.048, R 0.014, V -0.018, C 0.104, L -0.073, K 0.316, S 0.056, W -0.577, N 0.051, F -0.029
T33: C -0.064, E -0.263, I -0.721, D 0.079, Y -0.305, L -0.019, G 0, F -0.684, R 0.123, K 0.042, A 0.045, H -0.214, P -0.17, N 0.125
R32: E -0.472, M -0.202, C -0.432, D -1.04, Q -0.313, H -0.374, Y -0.426, G -0.727, A -0.456, N -0.909, T -0.49, S -1.07, V -0.523, K 0.207, W -0.583, P -1.36, F -0.417
I38: K 0.347, Q 0.098, R 0.428, H 0.415, A 0.149, W -0.24, T 0.26, N 0.274, F 0.023, E 0.351, L 0.12, D -0.015, V -0.019, S 0.224, G 0.401, M 0.151, C 0.203, Y 0.077, P -0.367
S31: P -0.434, F -0.411, N 0.057, H -0.085, E 0.12, W -0.024, G 0.054, T 0.287, Q 0.149, D 0.06, V -0.218, A -0.019, R -0.219, M 0.042, Y 0.015, L -0.49
V25: W -0.522, D -0.478, P -0.823, C 0.316, M 0.026, Y -0.798, I 0.235, N -0.275, S -0.528, G -0.755, F -0.349, H -0.578, Q -0.853, R -0.331
